According to the RNAGym collection of RNA variant scans (doi:10.1073/pnas.2313332121):

B1: TPR t1 (parent)
chain: GACCAAUCUGCCCUCAGAGCUCGAGAACAUCUUCGGAUGCAGAGGAGGCAGGCUUCGGUGGCGCGAUAGCGCCAACGUCCUCAACCUCCAAUGCAUCCCACCACAUGAUGAUGCCUGAAGAGCCUUGGUUUUUUG

Variants of: B1
Assay: polymerase ribozyme fitness, log enrichment relative to wild type (log ratio); higher = more active; in vitro selection for triplet polymerase activity
Procedure, shortened: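 Fitness is a logarithmic measure of how a genotype enriched relative to the wild type, with replicate averages weighted by inverse variance. The logarithm uses base 2, and enrichment came from Illumina sequencing of input and output libraries. Those libraries were PCR-built, transcribed mutants of each subunit of a heterodimeric triplet polymerase ribozyme, passed through one triplicate in vitro selection round that included frozen incubation at −7 °C, gel excision of extended constructs and streptavidin-bead capture. Genotypes were kept only if they had ≥10 input reads and ≥1 read per output.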

Point of comparison: GACCAAUCUGCCCUCAGAGCUUGAGAACAUCUUCGGAUGCAUAGGAGGCAGGCUUCGAUGGCGCGAUAGUGCCAACGUCCUCAACCUCCAAUGCAUCCCACCACAUGAUGAUGCCUGAAGAGCCUUGGUUUUUUG [C22U G42U G58A C70U], “polymerase ribozyme fitness (log ratio)” value -5.05. Against it:
- GACCAAUCUGCCCUCAGAGCUUGAGAACAUCUUCGGAUGCAGAGGAGGCAGGCUUUGGUGGCGCGAUAGCGCCAACGUCCUCAACCUCCAAUGCAUCCCACCACAUGAUGAUGUCUGAAGAGCCUUGGUUUUUUG [C22U C56U C114U] — higher, -4.27
- GACCAAUCUGCCCUCAGAGCUUGAGAACAUCUUCGGAUGCAGAGUAGCCAGGCUUCGGUGGCGCGAUAGCGCCAACGUCCUCAACCUCCAAUGCAUCCCACAACAUGAUGAUGCCUGAAGAGCGUUGAUUUUUUG [C22U G45U G48C C102A C124G G128A] — lower, -6.17
- GACCAAUCUGCCCUCAGAGCUUGAGAACAUCUUCGGAUGCAGAGGAGGCAGGCUUCGGUGGCGCGAUAGCGCCAACGACCUCAACCUCCAAUGCAUCCCACCACAGGAUGAUGCCUGAACAGCCUUGGUUUUUUG [C22U U78A U106G G120C] — lower, -5.48
- GACCAAUCUGCCCUCAGAGCUUGAGAACAUCUUCGGAUGCAGAGGAGGCAGGCUUCGGUGGCGCGAUAGCGCCAACGUCCUCAACCUCCAAUGCAUCCCACCACAUGAUGAUGACUGAAGAGCCUUGGUUUUUUG [C22U C114A] — higher, -4.76
- GACCAAUCUGCCCUCAGAGCUUGAGAACAUCUUCGGAUGCAGAGGAGGCAGGCUUCGGUGGCGCGAUAGCGCCAACGUCCUCAACCUCCAAUGCAUCCCACCACAUGAUGAUGCCUGAAGAGCCUUGGUGUUUUG [C22U U130G] — higher, -3.78
- GACCAAUCUGCCCUCAGAGCUUGAGAACAUCUUCGGAUGCAGAGGAGGCAGGCUUCGGUGGCGCGAUAGCGCCAACGUCCUCAACCUCCAAUGCAUCCCACCACAUGAUGAUGCCUGAAAAGCCUUGGUUUUUUG [C22U G120A] — higher, -3.35
- GACCAAUCUGCCCUCAGAGCUUGAGAACAUCUUCGGAUGCAGAGGAGGCAGGCUUCGGUGGCGUGAUAGCGCCAACAUCCUCAACCUCCAAUGCAUCCCACCACAUGAUGAUGCCUGAAGAGCCUUGGUUUUUUG [C22U C64U G77A] — higher, -4.03
- GACCAAUCUGCCCUCAGAGCUCAAGAACAUCUUCGGAUGCAGAGGAGGCAGGCUUUGCUGGCGCGAUAGUGCCAACGUCCUCAACCUCCAAUGCAUCCCACCAGAUGAUGAUGCCUGAAGAACCUUGGUUUUUUG [G23A C56U G58C C70U C104G G122A] — lower, -7.86
- GACCAAUCUGCCCUCAGAGCUCCAGAACAUCUUCGGAUGCAGAGGAGGCAGGCUUCGGUGGCGCGAUAGCGCCAACGUCCUCAACCUCCAAUGCAUCCCACCACAUGAUGAUGCCUGAAGGGCCUUGGUUUUUUG [G23C A121G] — lower, -6.91
- GACCAAUCUGCCCUCAGAGCUCCAGGACAUCUUCGGAUGCAGAGGAGGCAGGCUUCGGUGGCGCGAUAGCGCCAACGUCCUUAACCUCCAAUGCAUCCCACCACAUGAUGAUGCCUGAACAGCCUUGGUUUUUUG [G23C A26G C82U G120C] — higher, -4.02
- GACCAAUCUGCCCUCAGAGCUCAAGAACAUCUUCGGAUGCAGAGGAGGCAGGCUUCGGUGGCGCGAUAGCGCCAACGUCCUCAACCUCCAAUGCAUCCCACCACAUGAUGAUGCCUGAAGUGCCUUGGUUUUUUG [G23A A121U] — higher, -2.19
- GACCAAUCUGCCCUCAGAGCUUGAGAACAUCUUCGGAUGCAGAGUAGGCAGGCUUCGGUGGCGCGAUAGCGCCAACGUCCUCAACCUCCAAUGCAUCCCACCACAUGAUGAUGCCUGAAGAGCCUUGGUUUUUUG [C22U G45U] — within 0.2 log units, -4.99
- GACCAAUCUGCCCUCAGAGCUUGAGAACAUCUUCGGAUGCAGAGAAGGCAGGCUUCGGUGGCGCGAUAGCGCCAACGUCCUCAACCUCCAAUGCAUCCCACCACAUGAUGAUGCCUGAAGAGCCUUGGUUUUUUG [C22U G45A] — higher, -4.02
- GACCAAUCUGCCCUCAGAGCUUGAGAACAUCUUCGGAUGCAGAGGAGGCAGGCUUCGGUGGCGCGAUAGCGCCAACGUCCUCAACCUCCAAUGCAACCCACCACAUGAUGAUGCCUGAAGAGCCUUGGUUUUUUG [C22U U96A] — higher, -4.62
- GACCAAUCUGCCCUCAGAGCUUGAGAACAUCUUCGGAUGCAGAGGAGUCAGGCUUCGGUGGCGCGAUAGCUCCAACGUCCUCAACCUCCAAUGAAUCCCACCACAUGAUGAUGCCUGAAGAGCCUUGGUUUUUUG [C22U G48U G71U C94A] — lower, -6.57
- GACCAAUCUGCCCUCAGAGCUUGAGAACAUCUUCGGAUGCAGAGUAGGCAGGCUUCGGUGGCGCGAUAGCGACAACGUCCUCAACCUCCAAUGCAUCCCACCACAUGAUGAUGCCUGAAGAGCCUUGGUUUUUUG [C22U G45U C72A] — higher, -4.82
- GACCAAUCUGCCCUCAGAGCUCAAGAACAUCUUCGGAUGCAGAGGAGGCAGGCUUUGGUGGCGCGAUAGCGCCAACGUCCUCAACCUCCAAUGCAUCCCACCACAUGAUGAUGCCUGAAGAGCCUUGGUUUUUUG [G23A C56U] — higher, -3.66
- GACCAAUCUGCCCUCAGAGCUCAAGAACAUCUUCGGAUGCAGAGGAGGCUGGCUUCGGUGGCGCGAUAGCGCCAACGUCCUCAACCUCCAAUGCAUCCCACCACAUGAUGAUGCCUGAAGAGCCUUGGUUUUUUG [G23A A50U] — lower, -5.56
- GACCAAUCUGCCCUCAGAGCUUGAGAACAUCUUCGGAUGCAGAGGAGGCAGGCUUCGGUGGCGCGAUAGCGGCAACGUCCUCAACCUCCAAUGCAUCCCACCACAUGAUGAUGCCUGAAGAGCUUUGGUUUUUUG [C22U C72G C124U] — higher, -3.08
- GACCAAUCUGCCCUCAGAGCUUGAGAACAUCUUCGGAUGCAGAGGAGGCAGGCUUCGGUGGCGCGAUAGCGCCAACGUCCUCAACCUCCAAGGAAUCCCACCAGAUGAGGAUGCCUGAAGAAACAUGGUUUUUUG [C22U U92G C94A C104G U109G G122A C123A U125A] — lower, -7.36
- GACCAAUCUGCCCUCAGAGCUCAAGAACAUCUUCGGAUGCAGAGGAGGCAGGCUUCGGUGGCGCGAUAGCGCCAACGUCCUCAACCUCCAAUGCAUCCCACCACAUGAUGAUGCCUUAAGAGCCUUGGUUUUUUG [G23A G117U] — lower, -7.76
- GACCAAUCUGCCCUCAGAGCUUGAGAACAUCUUCGGAUGCAGAGGAGGCAGGCUUCGGUGGCGCGAUAGCGCCAACGUCCUCAACCUCCAAUGCAUCCCACCACAUGAUGAUGCCUGAAGAGCCUUGGAUUUUUG [C22U U129A] — within 0.2 log units, -5.14
- GACCAAUCUGCCCUCAGAGCUUGAGAACAUCUUCGGAUGCAGAGUAGGAAGGCUUCGGUGGCGCGAUAGCGCCAACGUCCUCAACCUCCAAUGCAUCCCACCACAAGAUGAUGCCUGAAGAGCCUUGGUUUUUUG [C22U G45U C49A U106A] — lower, -5.79
- GACCAAUCUGCCCUCAGAGCUUGAGAACAUCUUCGGAUGCAGAGGAGGCAGGCUUCGGUGGCGUGAUAGCGCCAACGUCCUCAACCUCCAAUGCAUCCCACCACAUGAUGAUGCCUGAAGAGCCUUGGUUUUUUG [C22U C64U] — higher, -3.81
- GACCAAUCUGCCCUCAGAGCUUGAGAACAUCUUCGGAUGCAGAGGAGGCAGGCUGCGGUGGCGCGAUAGCGACAACGUACUCAACCUCCAAUGCAUCCCACCACAUGAUGAUGCCUGAAGAGACUUGGUUUUUUG [C22U U55G C72A C79A C123A] — lower, -6.59
- GACCAAUCUGCCCUCAGAGCUCCAGAACAUCUUCGGAUGCAGAGGUGGCAGGCUUCGGUGGCGCGAUAGCGCCAACGUCCUCAACAUCCAAUGCAUCCCACCACAUGAUGAUGCCUGAUAAGCCUUGGUUUUUUG [G23C A46U C86A A119U G120A] — lower, -6.31
- GACCAAUCUGCCCUCAGAGCUCAAGAACAUCUUCGGAUGCAGAGGAGGCAGGCUUCGGUGGCCCGAUAGCGCCAACGUCCUCAACCUCCAAUGCAUCCCACCACAUGAUGAUGCCUGAAGAGCCUUGGUUUUUUG [G23A G63C] — higher, -3.02
- GACCAAUCUGCCCUCAGAGCUCAAGAACAUCUUCGGAUGCAGAGAAGGCAGGCUUCGGUGGCGCGAUAGCGCCAACGUCCUCAACCUCCAAUGCAUCCCACCACAUGAUGAUGCCUGAAGAGCCUUGGUUUUUUG [G23A G45A] — within 0.2 log units, -5.16
- GACCAAUCUGCCCUCAGAGCUUGAGAACAUCUUCGAAUGCAGAGGAGGCAGGCUUCGGUGGCGCGAUAGCGCCAAGGUCCUCAACCUCCAAUGCAUCCCACCACAUGAUGAUGCCUGAAGAGCCUUGGUUUUUUG [C22U G36A C76G] — within 0.2 log units, -5.14
- GACCAAUCUGCCCUCAGAGCUUGAGAACAUCUUCGGAUGCAGAGGAGGCAGGCUUCAGUGGCUCGAUAGCGCCAACGUCCUCAACCUCCAAUGCAUCCCACCACAUGAUGAUGCCUGAAGAGCCUUGGUUUUUUG [C22U G57A G63U] — lower, -5.87
- GACCAAUCUGCCCUCAGAGCUUGAGAACAUCUUCGGAUUCAGAGGAGGCAGGCUUCGGUCGCGCGAUAGCGCCAAUGACCUCAACCUCCAAUGCAUCCCACCACAUGAUGAUGCGUGAAGAGCCUUCGUUUUUUG [C22U G39U G60C C76U U78A C115G G127C] — lower, -6.22
- GACCAAUCUGCCCUCAGAGCUUGAGAACAUCUUCGGAUGCAGAGGAGCCAGGGUUAGGUGGCGCGAUAGCGCCAACGUCCUCAACCUCCAAUGCAUCCCACCACAUGAUGAUGCCUGAAGAGCCUUGGUUUUUUG [C22U G48C C53G C56A] — within 0.2 log units, -4.86
- GACCAAUCUGCCCUCAGAGCUCAAGAACAUCUUCGGAUGCAGAGGAGGCAGGCUUCGGUGGCGCGAUAGCGCCAACGUCCUCAACCUCCAAUGCAUUCCACCACAUGAUGAUGCCUGAAGUGCCUUGGUUUUUUG [G23A C97U A121U] — higher, -4.57
- GACCAAUCUGCCCUCAGAGCUCAAGAACAUCUUCGGAUGCAGAGGAGGCAGGCUUCGGUGGCGCGAUAGCGCCAACGUCCUCAACCUCCAAUGCAUCCCACCACAUGAUGAUGCCUGAAGAGACUUGGUUUUUUG [G23A C123A] — higher, -4.67
- GACCAAUCUGCCCUCAGAGCUUGAGAACAUCUUCGGAUGCAGAGGAGGCAGGCUUCGGUGGCGCGAUAGCGGCAACGUCCUCAACCUCCAAUGCAUCCCACCACAUGAUGAUGCCUGAAGAGCCUUGGUUUUUUG [C22U C72G] — higher, -4.14
- GACCAAUCUGCCCUCAGAGCUUGAGAACAUCUUCGGAUGCAGAGGAGGCAGGCUUCGGUGGCGCGAUAGCGCCAACGUCCUCAACCUCCAAUGCAUCCCAACACAUGAUGAUGCCUGAAGAGCCUUGGUUUUUUG [C22U C101A] — higher, -4.34
- GACCAAUCUGCCCUCAGAGCUCAAGAACAUCUUCGGAUGCAGAGGAGGCAGGCUUCGGUGGCGCGAUAGCACCAACGUCCUCAACCUCCAAUGCAUCCCACCACAUGAUGAUGCCUGAAGAGCCUUGGUUUUUUG [G23A G71A] — lower, -5.75
- GACCAAUCUGCCCUCAGAGCUUGAGAACAUCUUCGGAUGCAGAGGAGGCAGGCUUCGGUGGCGCGAUAGCGCCAACGUCCUCAACCUCCAAUGCAUCCCACCACAUGAUGAUACCUGAAGAGCCUUGGUUUUUUG [C22U G113A] — higher, -4.09
- GACCAAUCUGCCCUCAGAGCUUGAGAACAUCUUCGGAUGCAGAGGAGGCAGGCUUCGGUGGCGCGAUAGCGCCAACGUCCUCAACCUCCAAUGCAUCCCACCACAUGAUGAUUCCUGAAGAGCCUUGGUUUUUUG [C22U G113U] — lower, -5.27
- GACCAAUCUGCCCUCAGAGCUCAAGAACAUCUUCGGAUGCAGAGGAGGCAGGCUUCGGUGGCGCGAUAGCGCGAACGUCCUCAACCUCCAAUGCAUCCCACCACAUGAUGAUGCCUGAAGAGCCUUGGUUUUUUG [G23A C73G] — higher, -3.9
- GACCAAUCUGCCCUCAGAGCUCAAGAACAUCUUCGGAUGCAGAGGAGGCAGGCUUCGGUGGCGCGAUAGCGCAAACGUCCUCAACCUCCAAUGCAUCCCACCACAUGAUGAUGCCUGAAGAGCCUUGGUUUUUUG [G23A C73A] — lower, -5.86
